koff and IC50 data for eleven molecules are collected here from patent US20110053865A1 (published 2011).

The chains are these.
T1: recombinant human IL-12 (human, UniProt P29459 23-219; P29460 23-328)
T1 chain 1: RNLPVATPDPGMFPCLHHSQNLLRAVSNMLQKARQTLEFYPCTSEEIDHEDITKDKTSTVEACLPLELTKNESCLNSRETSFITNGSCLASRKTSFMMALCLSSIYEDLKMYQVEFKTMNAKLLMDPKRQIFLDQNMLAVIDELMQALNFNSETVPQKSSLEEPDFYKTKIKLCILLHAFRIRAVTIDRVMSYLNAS
T1 chain 2: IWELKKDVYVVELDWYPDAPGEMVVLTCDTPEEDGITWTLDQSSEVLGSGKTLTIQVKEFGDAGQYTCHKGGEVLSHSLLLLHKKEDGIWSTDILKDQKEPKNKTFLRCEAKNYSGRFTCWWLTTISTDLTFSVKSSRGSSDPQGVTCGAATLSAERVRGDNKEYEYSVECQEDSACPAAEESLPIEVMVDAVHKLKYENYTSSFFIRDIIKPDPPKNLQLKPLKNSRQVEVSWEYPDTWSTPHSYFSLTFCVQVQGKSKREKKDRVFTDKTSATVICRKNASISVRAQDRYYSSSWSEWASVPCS

T2: recombinant human IL-23 (p19/p40) (human, UniProt Q9NPF7 20-189; P29460 23-328)
T2 chain 1: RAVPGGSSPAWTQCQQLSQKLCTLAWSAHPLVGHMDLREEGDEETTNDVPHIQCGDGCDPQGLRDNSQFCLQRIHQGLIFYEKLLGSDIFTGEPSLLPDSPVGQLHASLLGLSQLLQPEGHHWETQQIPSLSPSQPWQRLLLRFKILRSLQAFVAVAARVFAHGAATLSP
T2 chain 2: T1 chain 2

B1: P23IL3B8 (VHH)
VHH: EVQLVESGGGLVQPGGSLRLSCAASGFTFSSSVMFWLRQAPGKGLEWLSTIKPTGSTIYPGSGKGRFTISRDNAKNTLYLQINNLKPEDTALYYCARDIGGTVRGQGTQVTVSS
B2: P23IL3G10 (VHH)
VHH: EVQLVESGGGVVQAGESLRLSCAASGYNVKDYEMGWFRQAPGMEREFAAAISWRGSSTYYADSVKGRFTISRDNAKNTVYLQMSSLKPEDTAVYYCAAGRLYPSSRSRDYDYWGQGTQVTVSS
B3: P23IL3C1 (VHH)
VHH: EVQLVESGGGSVQAGGSLRLSCKVSGIMFSDKGMGWFRQAPGKERETVAATNWSGGSTYYADSVKGRFTISRDNYKNTLHLQMASLKPEDTGIYYCAAAGDSWNSRRIEDYDYWGQGTPVTVSS
B4: P23IL 3F11 (VHH)
VHH: EVQLVESGGGLVQAGGSLRLSCAASGSIFSINAMGWFRQAPGKERQFVAAINWSTGSTYYSDSVKGRFTISRDNAKNTVYLQMNSLKPEDTAVYFCASGYLFPSSRGSQYDYWGQGTQVTVSS
B5: 119A3-119G7 (antibody)
chain: EVQLVESGGGLVQAGGSLRLSCAASGRIFSLPASGNIFNLLTIAWHRQAPGMQRELVATINSGSRTNYADSVKGRFTISRDNAQKTVYLQMNNLKPEDTAVYYCQTSGSGSPNFWGQGTQVTVSSGGGGSGGGGSGGGGSGGGGSGGGGSGGGGSGGGGSEVQLVESGGGLVQAGGSLTLSCAVSGLTFNNYAMGWFRQVPGKEREFVAAISRSGLRTFYSDSVKGRFTISRDSAKSTVYVQMNNLKPEDTAVYFCAADRRTYYSEGPSLTDTLRYDYWGQGTQVTVSS
B6: P23IL119A3 (VHH)
VHH: EVQLVESGGGLVQAGGSLRLSCAASGRIFSLPASGNIFNLLTIAWHRQAPGMQRELVATINSGSRTNYADSVKGRFTISRDNAQKTVYLQMNNLKPEDTAVYYCQTSGSGSPNFWGQGTQVTVSS
B7: P23IL-121A2 (VHH)
VHH: EVQLVESGGGLVQAGGSLRLSCAASGSIFNFNYMGWFRQAPGKEREFVAAIRWSGSSTYYADSVKGRFTISRDDAKNTVALQMNSLKPEDTAIYYCALRKGIPYSTSDRVIKGVNDYDYWGQGTQVTVSS
B8: P23IL81G2 (VHH)
VHH: EVQLVESGGGLVQPGGSLRLSCIASGLPFSTKSMGWFRQAPGKEREFVARISPGGTSRYYGDFVKGRFAISRDNAKNTTWLQMNSLKAEDTAVYYCASGERSTYIGSNYYRTNEYDYWGTGTQVTVSS
B9: P23IL81A12 (VHH)
VHH: EVQLVESGGGLVQAGGSLRLSCAASGRTLSSYAMGWFRQAPGKEREFVARISQGGTAIYYADSVKGRFTISRDNAKNTVYLQMNSLKPEDTAVYYCAKDPSPYYRGSAYLLSGSYDSWGQGTQVTVSS
B10: P23IL119G7 (VHH)
VHH: EVQLVESGGGLVQAGGSLTLSCAVSGLTFNNYAMGWFRQVPGKEREFVAAISRSGLRTFYSDSVKGRFTISRDSAKSTVYVQMNNLKPEDTAVYFCAADRRTYYSEGPSLTDTLRYDYWGQGTQVTVSS
B11: 121A2-119G7 (antibody)
chain: EVQLVESGGGLVQAGGSLRLSCAASGSIFNFNYMGWFRQAPGKEREFVAAIRWSGSSTYYADSVKGRFTISRDDAKNTVALQMNSLKPEDTAIYYCALRKGIPYSTSDRVIKGVNDYDYWGQGTQVTVSSGGGGSGGGGSGGGGSGGGGSGGGGSGGGGSGGGGSEVQLVESGGGLVQAGGSLTLSCAVSGLTFNNYAMGWFRQVPGKEREFVAAISRSGLRTFYSDSVKGRFTISRDSAKSTVYVQMNNLKPEDTAVYFCAADRRTYYSEGPSLTDTLRYDYWGQGTQVTVSS

For one test, the target named is T1, recombinant human IL-12. Kind of test: Biacore.
As to B1, the koff stood at 0.00243 s⁻¹.

Take B2: the koff was found to be 0.00244 s⁻¹.

As to B3, the off-rate constant (koff) was 0.000279 s⁻¹.

Consider B4, for which the off-rate constant (koff) was found to be 0.00134 s⁻¹.

The target in the next test is T2, recombinant human IL-23 (p19/p40). Nature of the test: alpha-screen hIL-23/hIL-23R; Fig 7.
On to B5, for which the IC50 was found to be 0.132 nM.

With B6, the IC50 is 0.67 nM.

Regarding B7, the IC50 is 0.27 nM.

The next test has the same target. Kind of test: Biacore; eBiosc hIL23.
For B8, the koff was 0.000257 s⁻¹.

Regarding B9, the koff amounted to 0.000113 s⁻¹.

With B10, the off-rate (koff) was 0.000479 s⁻¹.

Another test has the same target. Nature of the test: alpha-screen hIL-23/hIL-23R; Fig 6.
Turning to B11, the half-inhibitory concentration (IC50) is 0.131 nM.

For the molecule B7, the IC50 amounted to 0.299 nM.
